Drawing on the supplement of paper PMC10567573, this text covers protein stability index for 36 sequences.

A short description of the data set: protein stability index of a GFP-peptide fusion (GPS, HEK-293T) (PSI 1-6); higher = more stable. To be noted: c terminus: a fixed tail appended.

± gives the standard deviation.
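Note: 24-mer peptide tiles fused after GFP, lentivirally expressed, FACS-sorted into six equal bins by GFP/DsRed ratio, decoded by Illumina sequencing, PSI is the read-weighted mean bin number.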

With QALQAGPEGARRGLGVLRALGSRG [FANCE], the protein stability index by setting is: (treatment: DMSO) 4.38 ± 0.33; (treatment: MLN4924 1 uM, 8 h) 4.31 ± 0.26.
For QAPPVPGPPPGAPHTPQTPGQGGP [NR2F2], in that order: 5.22 ± 0.56 and 5.05 ± 0.38.
For QEQEIDGKSLLLMTRNDVLTGLQL [SAMD13], in that order: 3.23 ± 0.23 and 3.36 ± 0.24.
With QEVLSLRRENSTLDVECHEKEKHV [SASS6], the protein stability index runs as follows: (treatment: DMSO) 5.2 ± 0.38; (treatment: MLN4924 1 uM, 8 h) 5.52 ± 0.4.
With QEYQVLLDVRARLECEINTYRSLL [KRT33B], the protein stability index is, setting by setting: (treatment: DMSO) 2.25 ± 0.34; (treatment: MLN4924 1 uM, 8 h) 2.19 ± 0.26.
As to QGKDWGFKKFIRRDFLLDEANGLL [SPOPL], the protein stability index is 2.72 ± 0.27 (treatment: DMSO) and 2.31 ± 0.23 (treatment: MLN4924 1 uM, 8 h).
As to QGRFCTIFRSYSRGAQGILLVYDI [RAB40C], the protein stability index is, setting by setting: (treatment: DMSO) 2.74 ± 0.61; (treatment: MLN4924 1 uM, 8 h) 3.1 ± 0.64.
As for QHECVNTDDSYSCHCLKGFTLNPD [MATN2], the protein stability index is, setting by setting: (treatment: DMSO) 4.04 ± 0.16; (treatment: MLN4924 1 uM, 8 h) 4.15 ± 0.25.
Regarding QHNLRDSLENTLTESEAHYSSQLS [KRT34], the protein stability index runs as follows: (treatment: DMSO) 5.066 ± 0.033; (treatment: MLN4924 1 uM, 8 h) 4.99 ± 0.23.
For QKCHSIGETDEVTKTEDRELVLRK [ZSCAN9], in that order: 5.32 ± 0.3 and 5.37 ± 0.2.
On the same counts, the results for QKLLEQTQIIGEQNARLAELERKL [FBXO28] are 4.15 ± 0.082 and 4.24 ± 0.38.
On to QKPEFQDLSVEERSFVEKHRWPSN [RHOBTB3], for which the protein stability index (treatment: DMSO) was 4.08 ± 0.34 and the protein stability index (treatment: MLN4924 1 uM, 8 h) was 4.04 ± 0.17.
QLLILLQNCTDEGEREAIQKSVTR [POP5] had a protein stability index (treatment: DMSO) of 3.91 ± 0.26 and a protein stability index (treatment: MLN4924 1 uM, 8 h) of 4.12 ± 0.27.
For QLQFLIRYHRFISFALYLAGFCMF [CDS1], the protein stability index runs as follows: (treatment: DMSO) 2.07 ± 0.062; (treatment: MLN4924 1 uM, 8 h) 2.32 ± 0.52.
In the case of QMREAFATAFSKLKPESSQQPGQD [ZBED1], the protein stability index by setting is: (treatment: DMSO) 4.57 ± 0.19; (treatment: MLN4924 1 uM, 8 h) 4.62 ± 0.094.
Regarding QPVKTAGEITQHNVTELLRDVAAW [DNAAF3], the protein stability index worked out at 3.73 ± 0.32 (treatment: DMSO) and 3.75 ± 0.27 (treatment: MLN4924 1 uM, 8 h).
As for QPVSLRRRKREVLVEDMVSQEEAQ [ZNF24], the protein stability index by setting is: (treatment: DMSO) 5.07 ± 0.25; (treatment: MLN4924 1 uM, 8 h) 5.34 ± 0.33.
Consider QQCVDKESSLGSESEEEEEFYDAD [SLC22A15], for which the protein stability index runs as follows: (treatment: DMSO) 5.52 ± 0.45; (treatment: MLN4924 1 uM, 8 h) 5.33 ± 0.33.
Consider QQQRQRPPRPPPRGTPPRRHSFRK [N4BP2L1], for which the protein stability index came out at 4.44 ± 0.16 (treatment: DMSO) and 4.75 ± 0.26 (treatment: MLN4924 1 uM, 8 h).
Sequence QRLGIPKDPRQWTETHVRDWVMWA [ETS1] returned a protein stability index (treatment: DMSO) of 2.37 ± 0.31 and a protein stability index (treatment: MLN4924 1 uM, 8 h) of 2.48 ± 0.3.
As for QRTIMKPLEYQFKSQIMSLSHSPQ [TLE6], the protein stability index runs as follows: (treatment: DMSO) 2.89 ± 0.26; (treatment: MLN4924 1 uM, 8 h) 3.2 ± 0.23.
As for QSILLNTRLQDCYVDSPALTNIWM [C22orf31], the protein stability index reads like this: (treatment: DMSO) 2.24 ± 0.24; (treatment: MLN4924 1 uM, 8 h) 2.1 ± 0.36.
Turning to QSQLSMKAGLENSLAETECRYATQ [KRT15], the protein stability index stood at 4.38 ± 0.23 (treatment: DMSO) and 4.46 ± 0.17 (treatment: MLN4924 1 uM, 8 h).
As to QSYFKTIEDFQQKILLTKSENARL [KRT36], the protein stability index is 3.05 ± 0.42 (treatment: DMSO) and 2.77 ± 0.23 (treatment: MLN4924 1 uM, 8 h).
Regarding QSYPLCIYLINQKWFGRKRTLSAF [SLC22A15], the protein stability index by setting is: (treatment: DMSO) 2.46 ± 0.47; (treatment: MLN4924 1 uM, 8 h) 2.2 ± 0.61.
For the sequence QTKQVYDAVGMLGIEEVTYENCLQ [NLN], the protein stability index is, setting by setting: (treatment: DMSO) 3.56 ± 0.4; (treatment: MLN4924 1 uM, 8 h) 3.73 ± 0.53.
As for QWSSDVAPTSTCRTSVGVAVLGGF [KLHL20], the protein stability index amounted to 2.69 ± 0.58 (treatment: DMSO) and 2.71 ± 0.86 (treatment: MLN4924 1 uM, 8 h).
Sequence QYEGHVNEYAYLPLHVHEEEGILV [DCAF4] registered a protein stability index (treatment: DMSO) of 3.19 ± 0.13 and a protein stability index (treatment: MLN4924 1 uM, 8 h) of 3.17 ± 0.27.
For QYLEEERHMREENLRLQRKLQREM [CCDC6], the protein stability index was 4.24 ± 0.22 (treatment: DMSO) and 4.16 ± 0.42 (treatment: MLN4924 1 uM, 8 h).
On the same counts, the results for QYVITHAKVNILLVENDQQLQKIL [ACSBG2] are 2.5 ± 0.58 and 2.13 ± 0.2.
On the same counts, the results for RAFKIKDFANTIPGHGGIMDRFDC [CDS1] are 2.41 ± 0.28 and 2.76 ± 0.27.
Take RAKLDELEGALHQAKEELARMLRE [KRT71]: the protein stability index is 2.97 ± 0.36 (treatment: DMSO) and 3.7 ± 0.33 (treatment: MLN4924 1 uM, 8 h).
For RAPVVGVRVNVLLSRYLIEPCGPG [DLC1], in that order: 2.45 ± 0.7 and 2.79 ± 0.86.
Consider RAVNSLSMENANQENEEKEQVANK [BEX1], for which the protein stability index amounted to 5.52 ± 0.24 (treatment: DMSO) and 5.5 ± 0.34 (treatment: MLN4924 1 uM, 8 h).
Turning to RDSFMRHRGHCERRHRLGGVGAVP [ZBTB22], the protein stability index stood at 3.22 ± 0.35 (treatment: DMSO) and 3.25 ± 0.4 (treatment: MLN4924 1 uM, 8 h).
For the sequence REGALRAALQRSLAAALAQHSVPL [TRADD], the protein stability index (treatment: DMSO) worked out at 2.25 ± 0.3 and the protein stability index (treatment: MLN4924 1 uM, 8 h) turned out to be 2.28 ± 0.2.
